How the values were obtained:
Test in all cases: flow cytometry, alanine scan
human CD33 H346A = human CD33 H346A (human, UniProt P20138 18-364)
Experimental: (§1) An alanine scan on human CD33 was performed to the determine the residues on CD33 that are involved in binding to the antibodies investigated. […] Briefly, a mutation library of CD33 was created by high-throughput, site-directed mutagenesis. Each residue was individually mutated to alanine, with alanine codons mutated to serine. The mutant library was arrayed in 384-well microplates and transiently transfected into HEK293-T. Following transfection, cells were incubated with the indicated antibodies (IgG or Fab) at concentrations pre-determined using an independent immunofluorescence titration curve on wild type CD33. […] Binding of each antibody to each mutant clone was determined in duplicates. For each point, background fluorescence was subtracted from the raw data, which were then normalized to antibody reactivity with wild type CD33.
(§2) Critical residues for antibody binding (outlined in dark grey) were residues whose mutations led to a binding of the test Abs of less than 20%. Additional secondary residues (outlined in light grey) were identified that led to a binding of the test Abs of between 20 and 40% as compared to the wild type CD33.

human CD33 P350A = human CD33 P350A (human, UniProt P20138 18-364)
Experimental: as §1, §2

human CD33 T363A = human CD33 T363A (human, UniProt P20138 18-364)
Experimental: as §1, §2

human CD33 V332A = human CD33 V332A (human, UniProt P20138 18-364)
Experimental: as §1, §2

human CD33 T354A = human CD33 T354A (human, UniProt P20138 18-364)
Experimental: as §1, §2

human CD33 S324A = human CD33 S324A (human, UniProt P20138 18-364)
Experimental: as §1, §2

human CD33 G318A = human CD33 G318A (human, UniProt P20138 18-364)
human CD33 G318A, sequence (P20138 18-364 G318A limits assumed): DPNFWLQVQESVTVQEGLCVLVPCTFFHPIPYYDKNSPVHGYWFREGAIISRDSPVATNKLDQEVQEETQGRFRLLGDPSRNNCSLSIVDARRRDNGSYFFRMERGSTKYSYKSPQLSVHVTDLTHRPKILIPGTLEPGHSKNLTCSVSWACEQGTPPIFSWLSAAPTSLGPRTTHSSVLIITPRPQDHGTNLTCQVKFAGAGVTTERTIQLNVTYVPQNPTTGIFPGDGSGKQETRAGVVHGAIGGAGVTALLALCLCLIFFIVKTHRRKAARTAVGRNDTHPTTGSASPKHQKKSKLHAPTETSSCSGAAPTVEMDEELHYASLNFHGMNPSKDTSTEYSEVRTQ
Experimental: as §1, §2

human CD33 Y358A = human CD33 Y358A (human, UniProt P20138 18-364)
Experimental: as §1, §2

human CD33 M334A = human CD33 M334A (human, UniProt P20138 18-364)
Experimental: as §1, §2

human CD33 C325A = human CD33 C325A (human, UniProt P20138 18-364)
human CD33 C325A, sequence (P20138 18-364 C325A limits assumed): as the sequence (P20138 18-364 G318A limits assumed) above, with A301G, C308A counted along it
Experimental: as §1, §2

human CD33 T322A = human CD33 T322A (human, UniProt P20138 18-364)
human CD33 T322A, sequence (P20138 18-364 T322A limits assumed): as the sequence (P20138 18-364 G318A limits assumed) above, with A301G, T305A counted along it
Experimental: as §1, §2

human CD33 T356A = human CD33 T356A (human, UniProt P20138 18-364)
Experimental: as §1, §2

human CD33 S351A = human CD33 S351A (human, UniProt P20138 18-364)
Experimental: as §1, §2

human CD33 K352A = human CD33 K352A (human, UniProt P20138 18-364)
Experimental: as §1, §2

human CD33 G347A = human CD33 G347A (human, UniProt P20138 18-364)
Experimental: as §1, §2

human CD33 E333A = human CD33 E333A (human, UniProt P20138 18-364)
Experimental: as §1, §2

human CD33 E360A = human CD33 E360A (human, UniProt P20138 18-364)
human CD33 E360A, sequence (P20138 18-364 E360A limits assumed): as the sequence (P20138 18-364 G318A limits assumed) above, with A301G, E343A counted along it
Experimental: as §1, §2

human CD33 F345A = human CD33 F345A (human, UniProt P20138 18-364)
human CD33 F345A, sequence (P20138 18-364 F345A limits assumed): as the sequence (P20138 18-364 G318A limits assumed) above, with A301G, F328A counted along it
Experimental: as §1, §2

human CD33 M348A = human CD33 M348A (human, UniProt P20138 18-364)
human CD33 M348A, sequence (P20138 18-364 M348A limits assumed): as the sequence (P20138 18-364 G318A limits assumed) above, with A301G, M331A counted along it
Experimental: as §1, §2

human CD33 R362A = human CD33 R362A (human, UniProt P20138 18-364)
Experimental: as §1, §2

human CD33 L338A = human CD33 L338A (human, UniProt P20138 18-364)
Experimental: as §1, §2

human CD33 S323A = human CD33 S323A (human, UniProt P20138 18-364)
Experimental: as §1, §2

human CD33 L343A = human CD33 L343A (human, UniProt P20138 18-364)
Experimental: as §1, §2

human CD33 S355A = human CD33 S355A (human, UniProt P20138 18-364)
Experimental: as §1, §2

human CD33 N349A = human CD33 N349A (human, UniProt P20138 18-364)
Experimental: as §1, §2

human CD33 D335A = human CD33 D335A (human, UniProt P20138 18-364)
human CD33 D335A, sequence (P20138 18-364 D335A limits assumed): as the sequence (P20138 18-364 G318A limits assumed) above, with A301G, D318A counted along it
Experimental: as §1, §2

human CD33 D353A = human CD33 D353A (human, UniProt P20138 18-364)
human CD33 D353A, sequence (P20138 18-364 D353A limits assumed): as the sequence (P20138 18-364 G318A limits assumed) above, with A301G, D336A counted along it
Experimental: as §1, §2

human CD33 S359A = human CD33 S359A (human, UniProt P20138 18-364)
human CD33 S359A, sequence (P20138 18-364 S359A limits assumed): as the sequence (P20138 18-364 G318A limits assumed) above, with A301G, S342A counted along it
Experimental: as §1, §2

human CD33 Q364A = human CD33 Q364A (human, UniProt P20138 18-363)
Experimental: as §1, §2

human CD33 Y340A = human CD33 Y340A (human, UniProt P20138 18-364)
Experimental: as §1, §2

human CD33 E336A = human CD33 E336A (human, UniProt P20138 18-364)
Experimental: as §1, §2

human CD33 S342A = human CD33 S342A (human, UniProt P20138 18-364)
Experimental: as §1, §2

human CD33 P330A = human CD33 P330A (human, UniProt P20138 18-364)
Experimental: as §1, §2

human CD33 T320A = human CD33 T320A (human, UniProt P20138 18-364)
Experimental: as §1, §2

human CD33 T331A = human CD33 T331A (human, UniProt P20138 18-364)
Experimental: as §1, §2

human CD33 S326A = human CD33 S326A (human, UniProt P20138 18-364)
Experimental: as §1, §2

human CD33 P319A = human CD33 P319A (human, UniProt P20138 18-364)
Experimental: as §1, §2

human CD33 A341S = human CD33 A341S (human, UniProt P20138 18-364)
Experimental: as §1, §2

human CD33 N344A = human CD33 N344A (human, UniProt P20138 18-364)
human CD33 N344A, sequence (P20138 18-364 N344A limits assumed): as the sequence (P20138 18-364 G318A limits assumed) above, with A301G, N327A counted along it
Experimental: as §1, §2

human CD33 H339A = human CD33 H339A (human, UniProt P20138 18-364)
human CD33 H339A, sequence (P20138 18-364 H339A limits assumed): as the sequence (P20138 18-364 G318A limits assumed) above, with A301G, H322A counted along it
Experimental: as §1, §2

human CD33 A329S = human CD33 A329S (human, UniProt P20138 18-364)
human CD33 A329S, sequence (P20138 18-364 A329S limits assumed): as the sequence (P20138 18-364 G318A limits assumed) above, with A301G, A312S counted along it
Experimental: as §1, §2

human CD33 G327A = human CD33 G327A (human, UniProt P20138 18-364)
Experimental: as §1, §2

human CD33 A328S = human CD33 A328S (human, UniProt P20138 18-364)
Experimental: as §1, §2

human CD33 E321A = human CD33 E321A (human, UniProt P20138 18-364)
Experimental: as §1, §2

human CD33 E357A = human CD33 E357A (human, UniProt P20138 18-364)
Experimental: as §1, §2

human CD33 V361A = human CD33 V361A (human, UniProt P20138 18-364)
Experimental: as §1, §2

human CD33 E337A = human CD33 E337A (human, UniProt P20138 18-364)
human CD33 E337A, sequence (P20138 18-364 E337A limits assumed): as the sequence (P20138 18-364 G318A limits assumed) above, with A301G, E320A counted along it
Experimental: as §1, §2

human CD33 T354A, sequence (P20138 18-364 T354A limits assumed): as the sequence (P20138 18-364 G318A limits assumed) above, with A301G, T337A counted along it

B1: Refmab #1 (antibody, V domains shown)
VH: EVQLVQSGAEVKKPGSSVKVSCKASGYTITDSNIHWVRQAPGQSLEWIGYIYPYNGGTDYNQKFKNRATLTVDNPTNTAYMELSSLRSEDTAFYYCVNGNPWLAYWGQGTLVTVSS
VL: DIQLTQSPSTLSASVGDRVTITCRASESLDNYGIRFLTWFQQKPGKAPKLLMYAASNQGSGVPSRFSGSGSGTEFTLTISSLQPDDFATYYCQQTKEVPWSFGQGTKVEVK
notes: The alanine scan used IgG or Fab; also called hP67.6
Mean % WT Binding (human CD33 H346A): 81.8 % of WT | Mean % WT Binding (human CD33 P350A): 99 % of WT | Mean % WT Binding (human CD33 T363A): 91.4 % of WT | Mean % WT Binding (human CD33 V332A): 107 % of WT | Mean % WT Binding (human CD33 T354A): 91.8 % of WT | Mean % WT Binding (human CD33 S324A): 97.8 % of WT | Mean % WT Binding (human CD33 G318A): 98.5 % of WT | Mean % WT Binding (human CD33 Y358A): 76.1 % of WT | Mean % WT Binding (human CD33 M334A): 94.6 % of WT | Mean % WT Binding (human CD33 C325A): 80.1 % of WT | Mean % WT Binding (human CD33 T322A): 104 % of WT | Mean % WT Binding (human CD33 T356A): 93.5 % of WT | Mean % WT Binding (human CD33 S351A): 102 % of WT | Mean % WT Binding (human CD33 K352A): 95.3 % of WT | Mean % WT Binding (human CD33 G347A): 85.1 % of WT | Mean % WT Binding (human CD33 E333A): 77.9 % of WT | Mean % WT Binding (human CD33 E360A): 73.7 % of WT | Mean % WT Binding (human CD33 F345A): 97.8 % of WT | Mean % WT Binding (human CD33 M348A): 83.3 % of WT | Mean % WT Binding (human CD33 R362A): 104 % of WT | Mean % WT Binding (human CD33 L338A): 83.1 % of WT | Mean % WT Binding (human CD33 S323A): 95.2 % of WT | Mean % WT Binding (human CD33 L343A): 88.5 % of WT | Mean % WT Binding (human CD33 S355A): 86.1 % of WT | Mean % WT Binding (human CD33 N349A): 92.3 % of WT | Mean % WT Binding (human CD33 D335A): 77.8 % of WT | Mean % WT Binding (human CD33 D353A): 94.7 % of WT | Mean % WT Binding (human CD33 S359A): 95.8 % of WT | Mean % WT Binding (human CD33 Q364A): 72 % of WT | Mean % WT Binding (human CD33 Y340A): 91.1 % of WT | Mean % WT Binding (human CD33 E336A): 82.8 % of WT | Mean % WT Binding (human CD33 S342A): 79.5 % of WT | Mean % WT Binding (human CD33 P330A): 98.6 % of WT | Mean % WT Binding (human CD33 T320A): 98.5 % of WT | Mean % WT Binding (human CD33 T331A): 87.4 % of WT | Mean % WT Binding (human CD33 S326A): 85.6 % of WT | Mean % WT Binding (human CD33 P319A): 83.9 % of WT | Mean % WT Binding (human CD33 A341S): 86.8 % of WT | Mean % WT Binding (human CD33 N344A): 72.1 % of WT | Mean % WT Binding (human CD33 H339A): 76.7 % of WT | Mean % WT Binding (human CD33 A329S): 88.1 % of WT | Mean % WT Binding (human CD33 G327A): 88 % of WT | Mean % WT Binding (human CD33 A328S): 86.5 % of WT | Mean % WT Binding (human CD33 E321A): 88.3 % of WT | Mean % WT Binding (human CD33 E357A): 98.7 % of WT | Mean % WT Binding (human CD33 V361A): 88.8 % of WT | Mean % WT Binding (human CD33 E337A): 91.1 % of WT

From patent US20260242735A1 (UNIVERSIT T BASEL, published 2026)
